This note sets out measurements from publication PMC5732959, “BnaA.bZIP1 Negatively Regulates a Novel Small Peptide Gene, BnaC.SP6, Involved in Pollen Activity”.

The target in data set [1] is T1, BnaA.bZIP1-His (Brassica napus, UniProt A0A078IFD5 1-139).
T1 sequence: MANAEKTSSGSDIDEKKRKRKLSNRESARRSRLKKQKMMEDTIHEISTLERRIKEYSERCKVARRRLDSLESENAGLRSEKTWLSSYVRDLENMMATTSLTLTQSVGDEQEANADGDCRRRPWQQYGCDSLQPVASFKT
Nature of the data set: EMSA; EMSA: 10 ul with 2 ul 5x EMSA/Gel-Shift Binding Buffer (Beyotime), 30 nM Cy5 probe, 30 min at 25 C; 6% native PAGE, 0.5x TBE pH 8.3, 4 C. As to conditions: protein: recombinant, tags: His, pET-32a fusion (N-terminal vector tag), blunt. For orientation: In EMSA bound probe runs differently from free probe, usually more slowly.

For data set [2], the target named is T1, BnaA.bZIP1-His. The experiment in a line: competition; unlabeled probe at 200x, 400x, 800x reduces shift of Cy5-p59; EMSA: 10 ul with 2 ul 5x EMSA/Gel-Shift Binding Buffer (Beyotime), 30 nM Cy5 probe, 30 min at 25 C; 6% native PAGE, 0.5x TBE pH 8.3, 4 C. As to conditions: protein: recombinant; tags: His; pET-32a fusion (N-terminal vector tag); blunt.

Positions count from the first letter of the chain named.

B1: p59 (dsDNA)
DNA 1: AACGAAAGCCACCTCACGTCGTGCTATTTTCGGTGTAACCTTAACGGTGGATCTTTAAA
DNA 2: TTTAAAGATCCACCGTTAAGGTTACACCGAAAATAGCACGACGTGAGGTGGCTTTCGTT
For the molecule B1, in data set [1] (label: Cy5 (p59-CY5-F strand)), the binding result was “binds”.

B2: mp59 (dsDNA)
DNA 1: B1 DNA 1 with A16T, C17A, G18T, T19G, C20A
DNA 2: B1 DNA 2 with G40T, A41C, C42A, G43T, T44A
As for B2, the binding result in data set [1] (label: Cy5 (mp59-CY5-F strand)) is given as “no binding”.

B3: p59 unlabeled competitor (dsDNA)
DNA 1: B1 DNA 1
DNA 2: B1 DNA 2
For the molecule B3, the binding result in data set [2] is given as “binds”.
